{
  "source": "paper PMC5347031",
  "about": "“Characterization of long and stable de novo single alpha-helix domains provides novel insight into their stability” (Scientific Reports, 2017)",
  "proteins": {"B1": {"name": "EK2 de novo polypeptide (AEEAKKA repeats) (other)", "chain": "SAEEAKKAAEEAKKAAEEAKKAAEEAKKAAEEAKKAAEEAKKAAEEAKKAAEEAKKAAEEAKKAAEEAKKAAEEAKKAAEEAKKAAEEAKKAAEEAKW"}},
  "molecular_target": "the molecule itself",
  "experiment": "SEC; Superdex 75, 200 μl of 20-40 μM protein, 150 mM NaCl, 10 mM sodium phosphate, 0.03% NaN3, pH 7.4, 0.5 ml/min",
  "data": [
    {"protein": "B1", "values": [
      {"measurement": "stoichiometry N", "result": "~2"}
    ]}
  ]
}
